Test results from the DeepSol protein solubility set.

Assay: soluble on expression in E. coli; label from the status in PepcDB or PDB records

Row | Sequence | soluble on expression in E. coli
1 | KVIAGLYQRAFQHLSEAVQAAEEEAQPPSWSCGPAAGVIDAYMTLADFCDQQLRKEEENASVIDSAELQAYPALVVEKMLKALKLNSNEARLKFPRLLQIIERYPEETLSLMTKEISSVPCWQFISWISHMVALLDKDQAVAVQHSVEEITDNYPQAIVYPFIISSESYSFKDTSTGHKNKEFVARIKSKLDQGGVIQDFINALDQLSNPELLFKDWSNDVRAELAKTPVNKKNIEKMYERMYAALGDPKAPGLGAFRRKFIQTFGKEFDKHFGKGGSKLLRMKLSDFNDITNMLLLKMNKDSKPPGNLKECSPWMSDFKVEFLRNELEIPGQYDGRGKPLPEYHVRIAGFDERVTVMASLRRPKRIIIRGHDEREHPFLVKGGEDLRQDQRVEQLFQVMNGILAQDSACSQRALQLRTYSVVPMTSSDPRAPPCEYKDWLTKMSGKHDVGAYMLMYKGANRTETVTSFRKRESKVPADLLKRAFVRMSTSPEAFLALRSHFASSHALICISHWILGIGDRHLNNFMVAMETGGVIGIDFGHAFGSATQFLPVPELMPFRLTRQFINLMLPMKETGLMYSIMVHALRAFRSDPGLLTNTMDVFVKEPSFDWKNFEQKMLKKGGSWIQEINVAEKNWYPRQKICYAKRKLAGANPAVITCDELLLGHEKAPAFRDYVAVARGSKDHNIRAQEPESGLSEETQVKCLMDQATDPNILGRTWEGWEPWM | soluble
2 | MGSDKIHHHHHHMSAKQYDTLNNAEITSLAHRALACYPAALQGEVRLLCRSENATFLVTSAGKRYALRLHRSHYHQKAEIESELLWLDALRETGIVVPEAVRDASGERVQSLGLSDGSCRYAVLFHWIDGEMPTTSIDPRTFQQLGEITAHLHQHSRQWQKPDGFQRIVWDHHTMVSAQSHWGSWRDAPNLSRDEHGIVEEAIERMGTEMAEFGKAPHRYGLIHADLRLTNLLLHRGETRVIDFDDCGMGWYLHDLAAAISFVEHHPRAAEWVENWLCGYERVAHVSDEELALLPTLLIQRRIQLTAWVGSHAETEMAQSLGPDWASHSVRLCRRYLETRDLPLGVA | not soluble
3 | MGSSHHHHHHSSGLVPRGSHMKDTEDAFGHALMDYADGKCSYEMVETRNGKIDVTSISYYFRDHDQWPSMEREAIRYAKGRVVDVGAGAGRHSLYLQDQGFDVTALDISPLAVEVMKHRGVKNAKIASIDEVEPGWDTMILLGNNFGLMRTIDEAMAFLRRFYSESSDDARIIAETTDPLSAGFQSDKGYPGELEIRVIYREYRSEWFRYLLADRQKLREIIKDTGWKIDHFYDIADVDVYCFVLSK | soluble
4 | MGSDKIHHHHHHMAFTSDSLAIFLAVLDAGSFSAAARKLGRVPSAVSMAIAQLEAELDLPLFDRATRKALPTNAALALEPQARQVICQLNLLDAQALQLHKGLEKRLTIAMAPELQTGRWSQPLEILAQAFPSLEVEVRSATQTEAIRLLHDGSVQLALVFERPGIDERESFLEAGSQLLVAVASPRHPAGQNSGSPLPEEAFAEQRQIIVASGKATGSDPRMVLSRRIWLTDSYLATLDLVQSGLGWAYLPQPLVEPLIASGALAEVRFDNMANRLRLWVDIIWIKSRPLGLGARRYLEVMRQLFEKEPPRA | not soluble
5 | MAGKKTITINGVEMEASEEQTVLQLLNNSSIEVPQVCYHPSLGPIETCDTCIVSINGELKRSCSAELKDGDVIDTLSPDVKKAQVIGMDKILYNHELYCTVCDYNNGGCEIHNTVKEMKINHQSIPFDHKPYHKDESHPFYRYDPDQCILCGRCVEACQDVQVTETLTIDWERKRPRVIWDNDVPINESSCVSCGHCSTVCPCNAMMEKGMEGEAGYLTGINNETLRPMIEITKGVETGYGSILAISDMESAMRDERIKKTKTVCTYCGVGCSFDVWTKGRDILKVEPQEEAPANGISTCVKGKFGWDFVNSEERLTKPLIREGDHFREAEWEEALLLIASKFTELKEAFGPDSLAFITSSKCTNEESYLMQKLARGVIGTNNVDNCSRYCQSPATAGLFRTVGYGGDSGSITDIAQADLVLIIGSNTSESHPVLSTRIKRAHKLRGQKVIVADIRKHEMAERSDLFVQPRAGSDIVWLNAIAKYLIENGKADERFLRERVNGRDEYVKSLAPYTLEYAEEKTGIDQETLIQMAEMIGQADSVCALWAMGVTQHIGGSDTSTAISNLLLVTGNYGKPGAGSYPLRGHNNVQGASDFGSMPDRLPGYEKVTDEQVRQKYERVWGVPLPKEPGMTNHEMIEKIHSGQLKAMYVKGEEMGLVDSNINHVHAAYEKLDFFVVQDIFLSRTAEFADVVLPASPSLEKEGTFTNTERRIQRLYQVFEPLGESKPDWQIIMEVANKLGAGWLYEHPADIMEEAAKLSPIYAGVTYERLEGYNSLQWPVNADGKDSPLLFTERFPFPDGKAILYPVQWTEPKEFGEEYDIHVNNGRLLEHFHEGNLTYKSKGISEKTPEVFLEISPELAAERGIQDGTLVRLTSPFGNVKVKCLITDRVKGKEVYLPMNDSGEAAINLLTGSHADKDTDTPAYKETSAKMEILKHDGISPLPKINHRNGNPQPQIGVQVHKKWARKDYIFPGDAVKRGM | not soluble
6 | MADNPASSSSQQLLALRVMRLARPKFAPVDGFSHDPVDPTGFGELLAGKVSEISKESRQDLPIGEYLIAPQMFENIYLGETFTFYVNVVNESEKTVSSVSLKCELQTSTQRVVLPCSVQDATIESSKCEGQVISHEVKEIGQHILICSVNYKTSNGENMYFRKFFKFPVSKPIDVKTKFYSAENQDVYLEAQIENTSNANMFLEKVELDPSQHYNVTSIAHEDEFGDVGKLLKPKDIRQFLFCLTPADVHNTLGYKDLTSIGKLDMSWRTSMGEKGRLQTSALQRIAPGYGDVRLSVEKTPACVDVQKPFEVSCRLYNCSERALDLQLRLEQPSNRHLVFCSPSGVSLGQLPPSQHVDFSLNVFPVTVGIQSISGIRITDTFTKRIYEHDDIAQIFVS | not soluble
7 | MLVVPARLHRWPPEVQDLFGREGPLVLEIGFGDGRFTAELARSRPDWLVLGAEVSAASVLRALRRMRREGLANVRLYHGQGPFALRNLVLPGTLDQVIVNFPDPWPKKRHQERRLLREAFFRRLSTRLKPGGSLLLTTDHEEYFRFALEEAERTGLYRVEVRPPPEAHLRTKYALKWKEAGRAFFHAAFIKLREDPAPWPPLRRYDVAHALLSGELPQDLALEKTPVRLKEGVAVFLEVARGKEGFYVLTHVEEEDLTQDLLLEVRKSARGVYAGVSRFGSPLITEAVKGAVRALVDRLEAHGLEVVQDHT | soluble
8 | MAVENITMPQLGESVTEGTISKWLVNVGDHVNKYDPLAEVMTDKVNAEVPSSFTGIVKELIAGEGDTLAVGEVVCVIQVEGADEVAATAVEEKTKEEPKAEVNTPEKAPKAKQPTDGKPRFSPAVLKLAGEHNVDLDLVEGTGANGRITRKDILKLVESGNIPQAGAVKKEEAVAAVVEARPEAPKAAPVAQKVEAAKPVSVPTMPGDIEIPVTGVRKAIAANMLRSKHEAPHAWMMIEVDVTNLVSYRNSIKGDFKKREGFNLTFFAFFVKAVAQALKEYPQINSMWAGDKIVQKKDINLSIAVATEDELFVPVIKHADEKTIKGIAREITELAGKVRTKSLKADEMQGGTFTINNTGSFGSVQSMGIINYPQAAILQVESIVKRPVIMENGMFGARDMVNLCLSLDHRVLDGLICGKFLGRVKEILENTSENNTSVY | not soluble
9 | MTENLTVQPERLGVLASHHDNAAVDASSGVEAAAGLGESVAITHGPYCSQFNDTLNVYLTAHNALGSSLHTAGVDLAKSLRIAAKIYSEADEAWRKAIDGLFT | soluble
10 | MINIAVDNSIKITIETTVNAPIDMVWEAWTEPEHIKSWNHASDDWHTTEAKNDLRVGGRFVSKMEAKDGSFGFDFGGTYNKVRLYEFISYIMDDDRSVEITFKPEKDKTYIVESFEAEKSNPIDLQQKGWQAILDNFKKYVEENKLRGREKLEHHHHHH | soluble
11 | MKIQCDVCEKAPATVICCADEAALCPQCDIEIHAANKLASKHQRLHLNSLSTKFPRCDICQEKAAFIFCVEDRALLCRDCDESIHVANSRSANHQRFLATGIKVALTSTICSKEIEKNQPEPSNNQQKANQIPAKSTSQQQQQPSSATPLPWAVDDFFHFSDIESTDKKGQLDLGAGELDWFSDMGFFGDQINDKALPAAEVPELSVSHLGHVHSYKPMKSNVSHKKPRFETRYDDDDEEHFIVPDLG | not soluble
12 | MGSDKIHHHHHHMKHSDYSLIPTFVAIVEEKSYTKAAKRLGISQSAVSQGVTRLQAVFKDTLFIRGSRGVEPTQFSLDIYPTLASSVENIAFMMPEYKKFSAVKCEKQFVISSLSVFGFTILPPLSALMSQHAPLASVKIEPLNNHDFTNMLRSQHFDLVIDAHSNQYPQLRSKVIMEDTLCVMCRIDHPRLSGDSISIDEFLAEKHVTHSQLDQKGGYLSGKGLKEDEILNQRKIAWQAASIMEMLPVIECCDYIALLPQRLVDKYRHIYQLKQLHSNFLLDPIKVAMYWHSSRTNDPSHKWLREQIVKVTQQFNKL | not soluble
13 | MSNGIVIIGSGFAARQLVKNIRKQDATIPLTLIAADSMDEYNKPDLSHVISQGQRADDLTRQTAGEFAEQFNLHLFPQTWVTDIDAEARVVKSQNNQWQYDKLVLATGASAFVPPVPGRELMLTLNSQQEYRACETQLRDARRVLIVGGGLIGSELAMDFCRAGKAVTLIDNAASILASLMPPEVSSRLQHRLTEMGVHLLLKSQLQGLEKTDSGIQATLDRQRNIEVDAVIAATGLRPETALARRAGLTINRGVCVDSYLQTSNTDIYALGDCAEINGQVLPFLQPIQLSAMVLAKNLLGNNTPLKLPAMLVKIKTPELPLHLAGETQRQDLRWQINTERQGMVARGVDDADQLRAFVVSEDRMKEAFGLLKTLPM | not soluble
14 | MAFLARKTSSLLPATTSSTVKHMIYDEPHFAMQNSLAKLIKEKINPNVAQWEKSGRYPAHFVFKMLGQLGVFAVNKPVDYGGTGRDFAMSIAIAEQIGAVDCGSIPMSVMVQSDMSTPALAQFGSDSLRNRFLRPSINGDLVSSIAVSEPHAGSDVSAIRTHARRYGSDLIINGSKMWITNGDQADWACVLVNTSNAKNLHKNKSLVCIPLDSIGVHRSTPLDKLGMRSSDTVQLFFEDVRVPSSYIIGEEGRGFAYQMNQFNDERLVTVAVGLLPLQKCINETIEYARERLIFGKTLLDQQYVQFRLAELEAELEATRSLLYRTVLARCQGEDVSMLTAMAKLKIGRLARKVTDQCLQIWGGAGYLNDNGISRAFRDFRIFSIGAGCDEVMMQIIHKTQSKRQQKRI | not soluble
15 | MPDLAGDLAAVLPPRPDTPGGEALPTDSGDVLRQGDILGRRVQSVRLGWDQLTSVQLWMCEQVLGIESAAEDEKPRRTRADKWALNYQAAKQFYEREGHLQVARKWVERIVIGGDGDGGDDKEEREHKLGARIGIQRSRAATPTPERMELLSAIGMRWSLEHHHHHH | not soluble
16 | PTKLETFPLDVLVNTAAEDLPRGVDPSRKENHLSDEDFKAVFGMTRSAFANLPLWKQQNLKKEKGLF | soluble
17 | MRRVFSSQAIQTAIEKSLPDLQKIVGNSSVRTQESVRRQFARDESHFIAPPPAVVLEPTNVEQVSEILKLCNDRAIPVVPFGTGTGLEGGSMSTLGGICISTQQIIGDPVLREQDFVCSVKPSTTRIALNDAIKNSGLFFPVDPGADASVCGMVATSASGTNAIRYGTMKENVVNLEVVLADGTIIDTKGKGRCPRKSSAGFNFTELFVGSEGTLGIITEATVKVHPRPQFLSAAVCSFPTVHEAASTVVEVLQWNIPVARIELLDTVQIQACNSYSSLNLRESPTLFIEFHGSNEKEVADQTSAVEDICKSHEALDFDSGASPDKRATLWKARHNAYYAALAMRTGARGFTTDVCVPISKLADVISETRSDLDEHEILGTVVGHVGDGNFHVILPTIEEDKTEHRKIQSFSDRLVRRALAADGTCTGEHGIGLGKRKYLREELGENTVRLMHTIKHALDPNNIMNPGKVLPEL | soluble
18 | EKMTRDEIEYMLTNSEETLEAEEIEMLQGIFSLDEMMAREVMVPRTDAFMIDINNDAQSNIEGILSQNFSRVPVFDDDKDRVVGVLHTKRLLEAGFKTGFDTIDLRKILQEPLFVPETIFVDDLLKALRNTQNQMAILLDEYGGVAGLVTLEDLLEEIVGEID | soluble
